Assay results taken from patent US7173041B2, “Polyglutamic acid-camptothecin conjugates and methods of preparation” (priority 2000, dated 2007).
Entries after “also recorded” stand apart in the source; their conditions may differ.

Key:
B16 melanoma (B-16-F0) = test: Tumor growth delay (TGD), subcutaneous B16 melanoma in C57BL/6 mice; format: in vivo, murine; conditions: for relative anti-tumor efficacy (comparison in words): B16 model
Procedure: (§1) Tumors were produced in the […] of the right interscapular region by subcutaneously injecting 1.0×10^5 murine melanoma cells (B-16-F0; ATTC CRL-6322) in a volume of 0.2 ml PBS supplemented with 2% FBS. […] Camptothecin conjugates were dissolved in a 0.1 M Na2HPO4 solution by sonication at 45° C. for 45–60 minutes. Native camptothecins were dissolved in a mixture of 8.3% Cremophor EL/8.3% ethanol in 0.75% saline. All injections were given intraperitoneally (IP). Each treatment group consisted of 10 mice randomly allocated to each group. Tumor volume was calculated according to the formula (length×width×height)/2. Mice with tumors equal to or greater than 2000 mm^3 were euthenized by cervical dislocation. Tumor efficacy of test compounds was determined by calculating the tumor growth delay (TGD): the average time in days for the tumors in the treatment group to reach a fixed volume minus the average time for the tumors in the control group to reach the same volume. An unpaired Student's t-test was done to determine statistical differences. The compounds were tested at different concentrations to determine their MTD. The MTD is the maximum tolerated equivalent camptothecin dose.

[1] = Maximum tolerated dose (MTD) in mice; format: in vivo; conditions: for Murine single dose MTD (IP): mice, loadings as in Table 3
Source text: (§2) All injections were given intraperitoneally (IP). […] The MTD is the maximum tolerated equivalent camptothecin dose.

[2] = test system: NCI-H460 human non-small cell lung cancer xenografts; test: NCI-H460 xenografts in female nude mice, dosing every 4th day x4; format: in vivo
Procedure: Female nude mice with 7–8 mm subcutaneous NCI-H460 human non-small cell lung cancer xenografts were treated with PG-gly-CPT on days 1, 5, 9, and 13 at a dose of 40 mg/kg 20(S)-camptothecin per injection. The tested dose of 40 mg eq. […] Although there were no deaths, weight loss was approximately 20% of the starting weight. The absolute tumor growth delay (defined as difference in days for tumors to grow from 8 mm to 12 mm between the treated and the control groups) was 43 days for the PG-gly-CPT treated mice.

[3] = Aqueous solubility of PG-camptothecin conjugates; conditions: for Aqueous solubility: % CPT in conjugate (w/w): PG-CPT 14, PG-gly-CPT 37, PG-(10-OAc-CPT) 13, PG-(10-O-CPT) 13, PG-gly-(10-O-CPT) 20, PG-(10-OH-CPT) 19, PG-(9-NH-CPT) 14
[4] = test system: human NCI-H460 lung carcinomas; test: Tumor growth delay, NCI-H460 xenografts in athymic ncr nu/nu mice; format: in vivo; conditions: PG 50 kD
Procedure: as §1
(§3) In addition to the above-mentioned models, one other syngeneic model was used viz. LL/2 Lewis lung (ATTC CRL-1642) and 2 xenogeneic models were used viz. human NCI-H460 lung carcinomas (ATTC HTB-177) and HT-29 human colon carcinomas (ATTC HTB-38). In these xenogeneic models instead of immunocompetent C57BL/6 mice, immunocompromised athymic ncr nu/nu mice were used. Except for the number of tumor cells implanted to generate tumors the experimental protocol and procedures were identical to that for the B-16/F0 model.

[5] = test system: HT-29 human colon carcinomas; test: Tumor growth delay, HT-29 xenografts in athymic ncr nu/nu mice; conditions: for TGD (days to 500 mm^3) HT-29: PG 50 kD
Procedure: as §1, §3

animal tumor models = test: General comparison of PG-camptothecin conjugates in animal tumor models; design: species or system mice; conditions: mouse, in vivo
Source text: as §2

[6] = test system: NCI-H1299 human lung cancer cells; test: NCI-H1299 human lung cancer s.c. in female nude mice; conditions: 30 mg eq. 20(S)-camptothecin every 4th day x4
Procedure: 20(S)-camptothecin/kg in the prior experiment in nude mice, the dose was lowered to 30 mg eq. 20(S)-camptothecin every 4th day×4.

[7] = test system: NCI-H322 human lung cancer; test: NCI-H322 human lung cancer s.c. in female nude mice; format: in vivo; conditions: 33 kD, 37% loaded, i.v. days 9, 13, 17, 21 at 40 mg/kg 20(S)-camptothecin equivalent
Procedure: The antitumor activity of PG-gly-CPT (33 kD, 37% loaded) on NCI-H322 (ATTC CRL-5806) human lung cancer inoculated s.c. in female nude mice was studied. The drug was injected i.v. on days 9, 13, 17 and 21 at a 20(S)-camptothecin equivalent dose of 40 mg/kg when tumors measured 7–8 mm in diameter. The TGD was 40 days.

[8] = Table 4, PG 50 kD (PG-CPT: 33 kD)
[9] = second experiment, i.p., same schedule
[10] = CPT loading 30%, dose 34 mg CPT/kg
[11] = CPT loading 19%, dose 33 mg CPT/kg
[12] = CPT loading 33%, dose 38 mg CPT/kg
[13] = CPT loading 39%, dose 40 mg CPT/kg
[14] = CPT loading 47%, dose 40 mg CPT/kg
[15] = 40 mg eq. 20(S)-camptothecin/kg every 4th day x4

PG-CPT
TGD (days to 500 mm^3) B16 (B16 melanoma (B-16-F0); CPT loading 20%, dose 80? mg CPT/kg, PG 33 kD): 4.0 days | MTD [1, 8]: ≧80 mg CPT/kg | Murine single dose MTD (IP) [1]: 60–80 mg eq. CPT/kg | toxicity observations [2, 9]: without observable toxicity | tumor growth delay [2, 9]: substantial growth delay

PG-(10-O-CPT)
Aqueous solubility [3]: 10 mg/mL | Murine single dose MTD (IP) [1]: 50 mg eq. CPT/kg

PG-gly-gly-gly-CPT
TGD (days to 500 mm^3) NCI-H460 [4, 10]: 38.5 days | TGD (days to 500 mm^3) HT-29 [5, 11]: 6.9 days | TGD (days to 500 mm^3) HT-29 [5, 10]: 28.4 days | MTD [1, 8]: ≦34 mg CPT/kg

PG-gly-(10-OH-CPT)
relative anti-tumor efficacy (comparison in words) (B16 melanoma (B-16-F0)): approximately twice as efficacious as PG-gly-(7-Et-10-OH-CPT)

PG-(9-NH-CPT)
overall efficacy, tolerability and solubility (in words) (animal tumor models): active | Aqueous solubility [3]: 7 mg/mL | MTD ([1]; mouse, in vivo): > 25 mg eq. 20(S)-9-aminocamptothecin/kg | Murine single dose MTD (IP) [1]: >25 mg eq. CPT/kg

PG-(10-OH-CPT)
relative anti-tumor efficacy (comparison in words) (B16 melanoma (B-16-F0)): not as effective as the PG-(10-OAc-CPT) or the PG-gly-(10-OH-CPT) | Aqueous solubility [3]: >10 mg/mL | Murine single dose MTD (IP) [1]: >50 mg eq. CPT/kg

PG-gly-gly-CPT
TGD (days to 500 mm^3) HT-29 [5, 11]: 4.5 days | MTD [1, 8]: ≧33 mg CPT/kg

PG-gly-(10-O-CPT)
Aqueous solubility [3]: >10 mg/mL

PG-ala-CPT
TGD (days to 500 mm^3) B16 (B16 melanoma (B-16-F0); CPT loading 20%, dose 73 mg CPT/kg, PG 50 kD): 2.2 days | MTD [1, 8]: ≧73 mg CPT/kg

PG-gly-CPT
TGD (days to 500 mm^3) B16 (B16 melanoma (B-16-F0); CPT loading 32%, dose 35 mg CPT/kg, PG 50 kD): 3.3 days | TGD (days to 500 mm^3) NCI-H460 [4, 12]: 15.8 days | TGD (days to 500 mm^3) NCI-H460 [4, 13]: 38.5 days | TGD (days to 500 mm^3) NCI-H460 [4, 14]: 6.5 days | TGD [6]: 32 days | tolerability [6]: well-tolerated | TGD (days to 500 mm^3) HT-29 [5, 11]: 4.1 days | TGD (days to 500 mm^3) HT-29 ([5]; CPT loading 33%, dose 33 mg CPT/kg): 11.9 days | TGD (days to 500 mm^3) HT-29 [5, 12]: 20.3 days | TGD (days to 500 mm^3) HT-29 [5, 13]: 25.8 days | TGD (days to 500 mm^3) HT-29 [5, 14]: 5.8 days | tolerability of repeated dosing ([5]; ip, 4 times with a weekly interval, total dose 3 times the single dose): very well tolerated | TGD [7]: 40 days | MTD in male ncr nu/nu mice ([1]; PG 50 kD, (mono) glycine linker, 35–37% 20(S)-camptothecin): 40 mg/kg 20(S)-camptothecin equivalents | MTD [1, 8]: ~40 mg CPT/kg | Murine single dose MTD (IP) [1]: 60–80 mg eq. CPT/kg | toxicity observations [2, 15]: no deaths; also recorded: modestly exceeded the MTD | weight loss, of the starting weight [2, 15]: approximately 20% | absolute tumor growth delay (tumors to grow from 8 mm to 12 mm, treated vs control) ([2]; 40 mg/kg 20(S)-camptothecin per injection, days 1, 5, 9, 13): 43 days

PG-(β-ala)-CPT
TGD (days to 500 mm^3) B16 (B16 melanoma (B-16-F0); CPT loading 31%, dose 67 mg CPT/kg, PG 50 kD): 1.1 days | MTD [1, 8]: ≧67 mg CPT/kg

PG-(10-OAc-CPT)
TGD (B16 melanoma (B-16-F0); 50 mg eq. 20(S)-10-hydroxycamptothecin/kg, p<0.01 compared to control): 5.3 days | relative anti-tumor efficacy (comparison in words) (B16 melanoma (B-16-F0)): appeared more active at 50 mg eq. 20(S)-10-hydroxycamptothecin/kg than PG-gly-(10-O-CPT) | aqueous solubility / solution behaviour (in words) [3]: solution was very viscous | Aqueous solubility [3]: 10 mg/mL | time after which the compound precipitated out of solution ([3]; dosing solution): approx. 30 min | Murine single dose MTD (IP) [1]: 10–20 mg eq. CPT/kg

PG-(4-NH-butyryl)-CPT
TGD (days to 500 mm^3) B16 (B16 melanoma (B-16-F0); CPT loading 32%, dose 80 mg CPT/kg, PG 50 kD): 0.9 days | MTD [1, 8]: ≧80 mg CPT/kg

PG-(2-O-acetyl)-CPT
TGD (days to 500 mm^3) B16 (B16 melanoma (B-16-F0); CPT loading 15%, dose 80 mg CPT/kg, PG 50 kD): 3.8 days | MTD [1, 8]: ≧80 mg CPT/kg

PG-(4-O-butyryl)-CPT
TGD (days to 500 mm^3) B16 (B16 melanoma (B-16-F0); CPT loading 32%, dose 37 mg CPT/kg, PG 50 kD): 2.8 days | TGD (days to 500 mm^3) HT-29 ([5]; CPT loading 24%, dose 36 mg CPT/kg): 13.1 days | MTD [1, 8]: ~36 mg CPT/kg

PG-(γ-glu)-CPT
TGD (days to 500 mm^3) B16 (B16 melanoma (B-16-F0); CPT loading 21%, dose 54 mg CPT/kg, PG 50 kD): 0.8 days | MTD [1, 8]: ≧54 mg CPT/kg
